Assay [1] addresses T1, ZIKV E Domain III ([..]), polyhistidine-AviTag, produced in HEK-293-6E cells (ZIKV).
T1 construct: also called ZEDIII; ZIKV EDIII
Put plainly: ELISA on coated ZIKV EDIII. On the technique in general: An ELISA detects its analyte on a solid surface through an enzyme-linked reagent.

The target in assay [2] is T2, DENV1 EDIII, polyhistidine-AviTag, produced in HEK-293-6E cells (DENV1).
T2 construct: also called EDIII of DENV1
The assay can be described thus: cross-reactivity ELISA.

The target of assay [3] is DENV3 EDIII, polyhistidine-AviTag (DENV3). The assay can be described thus: cross-reactivity ELISA.
Assay [4] has as its target ZIKV E protein (2015 Puerto Rican PRVABC59 strain) on virus (ZIKV, strain PRVABC59). Put plainly: cell-based or functional assay.
The target in assay [5] is DENV1 E protein (strain PUO-359) on RVPs or on virus (DENV1, strain PUO-359). Put plainly: cell-based or functional assay.

Data on 13 molecules can be found in patent US20200147199A1 (ROCKEFELLER UNIVERSITY, published 2020).

T2 sequence (P17763 577-674, tags left off): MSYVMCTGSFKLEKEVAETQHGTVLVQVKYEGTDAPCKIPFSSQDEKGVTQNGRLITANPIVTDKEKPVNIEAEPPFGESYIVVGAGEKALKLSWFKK

B1: Z044 (BRA138_46) (antibody, V domains shown)
VH: QVQLVQSGAEVKKPGASVKVSCKASGYTFTSTYIHWVRQAPGQGLEWMGIINPSSSNTNYAQKFQGRVTMTRDTSTSTVYMELSSLRSEDTAVYYCARDFGGYSSSSVSDAFDIWGQGTMVTVSS
VL: QSALTQPASVSGSPGQSITISCTGTSSDVGSFNLVSWYQQHPGKAPKLIIYEVSKRPSGVSNRFSGSKSGNTASLTISGLQAEDEVHYYCCSYAGSSRFVFGTGTKVTVL
For B1, in assay [1], the half-maximal effective concentration (EC50) – broadly, the midpoint of the concentration-response curve – is above 10 µg/mL. In addition, the binding result in assay [2] is given as “no binding (tested: 10 µg/ml)”.

B2: Z031 (BRA112_46) (antibody, V domains shown)
VH: EVQLLESGGGLVQPGGSLRLSCVASGFTFGSYGMAWVRQAPGKGLEWISSISSIDPSTYYADSVKGRFTVSRDNSENTLYLHMSSLKVEDTAVYFCAKDRLNGGFGELFASWGQGTLVTVSS
VL: DIQMTQSPSTLSASVGDSVTITCRASQSISSWLAWYQQKPGKAPKFLIHKASSLESGIPSRFSGSGSGTEFTLTINNLQPDDFATYYCQHYHSYPWTFGQGTKVEIK
Turning to B2, the binding result in assay [3] is on record as “no binding (tested: 10 µg/ml)”.

B3: Z021 (MEX84_p4-23) (antibody, V domains shown)
VH: QVQLQESGPGLVKPSETLSLTCTVSGGSIDTYYWSWIRQTPGKGLEWIGCFYYSVDNHFNPSLESRVTISVDTSKNQFSLKMTSMTASDTAVYYCARNQPGGRAFDYWGPGTLVTVSS
VL: EIVLTQSPATLSLSPGQRATLSCRASQSVSNYFAWYQQKPGQAPRLLIYDTSKRATGTPARFSGSGSGTDFTLTISSLEPEDFAVYYCQERNNWPLTWTFGLGTKVEIK
Turning to B3, the “IC50, plaque reduction neutralization (PRNT)” value in assay [4] amounted to 0.004 µg/mL. In assay [5], the “IC50, DENV1 neutralization (flow cytometry)” value came out at 0.0101 µg/mL.

B4: Z038 (BRA12_2) (antibody, V domains shown)
VH: EVQLLESGGGLVQPGGSLRLSCEASGFTFSNYAMNWVRQAPGKGLEWVSTLGATDNSGDSTYYVESAKGRFTISRDNSKNTLYLQMNSLRVEDTAVYFCAKDRTGNIGAGTGYFDKWGQGTLVTVSS
VL: DIQMTQSPSTLSASVGDRVTITCRASHRISGWLAWYQQKPGKAPKLLIYQASGLESGVPSRFSGSGYGTEFTLTISSLQADDFATYYCQQYNNYPWTFGQGTKVEIK
notes: also called BRA12_02
In the case of B4, the binding result in assay [3] is recorded as “no binding (tested: 10 µg/ml)”.

B5: Z006 (MEX105_42) (antibody, V domains shown)
VH: EVQLLESGGGLVQPGGSLRLSCAASGFTFKNYAMAWVRQAPGKGLEWVSLLYNSEESTYYADSVKGRFTISRDNSKNTLFLQMNRLRVEDTAVYFCVRDRSNGWSSINLWGRGTLVTVSS
VL: DIQMTQSPSTLSASVGDRVTMTCRASQTISGWLAWYQQKPGKAPKLLIYQASRLESGIPSRFSGSGSGTEFTLTISSLQPDDVATYYCQQYSTFWTFGLGTKVEIK
Regarding B5, in assay [3], the binding result is “no binding (tested: 10 µg/ml)”.

B6: Z010 (MEX105_88) (antibody, V domains shown)
VH: EVQLLESGGGLVQPGGSLRLSCAASGFTFSNYAMAWVRQAPGKGLEWVSLIYSGDDSTYYADFVKGRFTISRHNSKNTLSLQMNSLRAEDTAIYYCVKDRGTGWSSIVHWGQGTLVTVSS
VL: DIQMTQSPSTLSASVGDRVTITCRASQTISNWLAWYQQKPGKAPKLLIYQASSLESGVPSRFSGSGSGTEFTLTISSLQPDDFATYYCQQYSTYWTFGQGTKVEIK
For B6, the binding result in assay [3] is listed as “no binding (tested: 10 µg/ml)”.

B7: Z004 (MEX18_89) (antibody, V domains shown)
VH: EVQLLESGGGLVQPGGSLRLTCATSGFTFRDYAMSWVRQAPGKGLEWVSSYSGIDDSTYYADSVKGRFTISRDNSKSTLSLHMNSLRAEDSALYFCAKDRGPRGVGELFDSWGQGTLVTVSS
VL: DIQMTQSPSTLSASVGDRVTITCRASQSISKWLAWYQQKPGKAPKLLIYTTSTLKSGVPSRFSGSGSGTEFTLTISSLQPDDFATYYCQHFYSVPWTFGQGTKVEIK
notes: also called biotin-Z004 (biotinylated form)
B7: the binding result in assay [3] was “no binding (tested: 10 µg/ml)”. Moreover, the “IC50, plaque reduction neutralization test (PRNT)” value in assay [4] stood at 0.0022 µg/mL. In assay [5], the “IC50, DENV1 luciferase RVPs” value was determined as 0.0016 µg/mL and the “IC50, flow cytometry with authentic DENV1” value is 0.0164 µg/mL.

B8: Z028 (MEX84_p4-53) (antibody, V domains shown)
VH: EVQLLESGGGLVQPGGSLRLSCAASGFTFSAYAMSWVRQAPGKGLEWVSSINGHSDSTYFADSVKGRFTISRDNSKNTLYLQMNSLRAEDTALYYCAKDRLREGIGELFHSWGQGTLVTVSS
VL: DIQMTQSPSTLSASIGDRVTITCRASQSITPWLAWYQQKPGKAPKFLIYQTSILESGVPSRFSGSGSGTEFTLTISSLQPDDFATYYCQHYHSYPWTFGQGTKVEIK
Regarding B8, the binding result in assay [3] is “no binding (tested: 10 µg/ml)”.

B9: Z001 (MEX18_21) (antibody, V domains shown)
VH: EVQLLESGGGLVQPGGSRRLSCATSGFSFDTYAMSWLRQAPGKGLEWVSSFSGLDDSTYYADSVKGRFTISRDNSKNTLYLQMNSLRAEDTAIYYCAKDRGPRGIGELFDFWGQGTLVTVSS
VL: DIQMTQSPSTLSASVGDRVTITCRASQSISRWLAWYQQKPGKAPKLLIYKTSTLKSEVPSRFSGSGSGTEFTLTISSLQPDDFATYYCQHFHSVPWTFGQGTKVEIK
For B9, the binding result in assay [3] was “no binding (tested: 10 µg/ml)”.

B10: Z054 (BRA138_94) (antibody, V domains shown)
VH: QLQLQESGPRLVKPSETLFLTCTVSGDSISSSSYFWGWIRQPPGKGLEWIGSISYSGSTYYNPSLKSRVTISVDTSKNQFSLKLSSVTAADTVVYYCAKHLYSSSWNIGSSFDSWGPGTLVTVSS
VL: EIVLTQSPATLSLSPGERATLSCRASQSVSIYLAWYQQKPGQAPRLLIYDASSRATGIPARFSGSGSGTDFTLTISSLEPEDFAVYYCQQRSNWPVYTFGQGTKVEIK
B10 registered an EC50 in assay [1] above 10 µg/mL. Moreover, the binding result in assay [2] is “no binding (tested: 10 µg/ml)”.

B11: Z040 (BRA12_81) (antibody, V domains shown)
VH: EVQLLESGGGLVQPGGSLRLSCAASGFTFSTYAMSWVRQAPGKGLEWVSAISGSGRSTYYADSVKGRFTISRDNSKNTLYLQMNSLRGEDTAVYYCAKSSGGHNWNYVDYYYGMDVWGQGTTVTVSS
VL: DIQLTQSPSFLSASVGDRVTITCRASQGISSYLAWYQQKPGKAPKLLIYAASTLQSGVPSRFSGSGSGTEFTLTISSLQPEDFATYYCQQLNSYPVTFGPGTKVDIK
For B11, the EC50 in assay [1] is above 10 µg/mL. Also, the binding result in assay [2] is “no binding (tested: 10 µg/ml)”.

B12: Z032 (BRA112_24) (antibody, V domains shown)
VH: EVQLLESGGRLVQPGGSLTLSCAASGFPFSTYAMSWLRQAPGKGLEWVSGITGDSGSTYYAASVKGRFTISRDNSKNTLYLQMNSLTADDTAVYYCAKDRLHSGLGELFSYWGQGTLVTVSS
VL: DIQMTQSPSTLSASVGDRVNITCRASQSINQWLAWYQQKPGKAPKFLMYKASTLETGVPSRFSGSGSGTEFTLTISSLQPDDFATYYCQHYFSYPWTFGQGTKVEIK
Consider B12, for which, in assay [1], it took 0.0195 µg/mL to reach a half-maximal effect (EC50).

B13: Z035 (BRA112_71) (antibody, V domains shown)
VH: EVQLLESGGGLIQPGGSLRLSCAASGFTFSSYAMSWVRQAPGKGLEWVSGISGSGGASDNGASRYYADSVKGRFSISRDNSKNTVYLQMNSLRAEDTAVYYCAKDRLSGGFGELFQKWGQGTLVTVSS
VL: DIQMTQSPSTLAASVGDRVTITCRASQNINSWLAWYQQKPGKAPKFLIYKASTLESGAPSRFSGSGSGTEFTLTISSLQPDDFATYYCQHYYSYPYTFGQGTKVEIK
Take B13: the binding result in assay [3] is reported as “no binding (tested: 10 µg/ml)”.
